The values that follow come from patent US20210259954A1, “CILIA-TARGETING NANOPARTICLES” (Chapman University, priority 2019, published 2021).

For experiment [1], the target named is Dopamine-receptor type-5 (DR-5) on primary cilia of cultured cells. Kind of experiment: live single-cell fluorescence imaging of perfused fluorescent nanoparticles on the cilium.
Experiment [2] concerns p-ERK. Kind of experiment: Immunoblotting of phosphorylated ERK. To be noted: PKG inhibition. Format: cell-based. The protocol:
Immunoblotting. […] Samples were kept on ice during sonication to prevent overheating. Samples were then centrifuged at 15,000 rpm for 20 min, and the supernatants were collected and subjected to protein quantification. The PAGE (polyacrylamide gel electrophoresis) on 6-10% SDS gels was performed followed by semi-dry transfer to PVDF membranes using a Bio-Rad Trans-Blot Turbo Transfer System and detection using antibodies against t-ERK (1:1,000), p-ERK (1:1,000), NOS (1:200), and GAPDH (1:2,000) (Cell Signaling Technology). Blots were scanned with both calorimetry to image molecular markers and chemiluminescence to capture the protein signal intensity using a Bio-Rad imager.

Experiment [3] concerns the target Dopamine-receptor type-5 (DR-5) on primary cilia of cultured cells. Kind of experiment: fluorescence intensity in non-permeabilized live cells.
For experiment [4] the target is unchanged. Kind of experiment: live single-cell-single-cilium fluorescence intensity per area.

In experiment [1], “CT-PLGA-NPs (cilia-targeted PLGA nanoparticles carrying DR-5-AF594 antibody and fenoldopam)” registered a binding kinetics to cilia of 0.26 min⁻¹.
Same read-out and setting: next, “CT-DAu-NPs (cilia-targeted dopaminergized gold nanoparticles carrying DR-5-AF594 antibody and fenoldopam)”: 0.21 min⁻¹.
Take `Nc1nc2c(nc(Sc3ccc(Cl)cc3)n2C2OC3COP(O)(=S)OC3C2O)c(=O)[nH]1` (centres unmarked) [Rp-8pCPT-cGMP]: the “flow-induced effect of NPs on ERK phosphorylation” value in experiment [2] is given as “reduced the flow-induced effect of NPs on ERK phosphorylation”.
“CT-Fe2O3-NPs (antibody- and fenoldopam-loaded Sunbright-40-OA-Fe2O3-NPs)”: the ratio of cilia-to-cell body specificity in experiment [3] was determined as 158. For the same compound, the proportion of specific binding cilium:cell:background (relative to background = 1) in experiment [4] amounted to 17000.
